Experimental data as given in the supplement of paper PMC9732359.
± gives the uncertainty stated by the source.

Test: protein stability index of a GFP-peptide fusion (yeast GPS) (PSI 1-4); higher = more stable; sorted into four equal gates, so the index is relative within each strain
In short: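 Sequencing reads from sorted gates were used to score each peptide. The library consisted of tiled 17-residue yeast protein peptides fused downstream of GFP on a Cherry-expressing plasmid, pooled and carried in yeast. Mid-log cultures in leucine-free medium were split into four equal gates by GFP/Cherry ratio, and each gate's plasmids were PCR-amplified and Illumina-sequenced. The protein stability index adds up, over all gates, the read frequency multiplied by the gate number.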

| Sequence | protein stability index (doa10∆) | protein stability index (pdr5∆) | protein stability index (san1∆) | protein stability index (ubr1∆) |
| --- | --- | --- | --- | --- |
| EIEPILMEIHNILKVDS [RGR1] | 1.74 ± 0.098 | 1.84 ± 0.1 | 1.98 ± 0.15 | 1.76 ± 0.065 |
| CRNDAVNWLAYTYLYVR [BRR2] | 3.25 ± 0.063 | 3.54 ± 0.046 | 3.18 ± 0.046 | 3.21 ± 0.043 |
| LISIISSVIQNYDIITA [YML103C/NUP188] | 1.81 ± 0.083 | 1.42 ± 0.1 |  | 1.3 ± 0.2 |
| VVFRDPYKYRLREEIFI [RPL2A] | 2.47 ± 0.12 | 2.66 ± 0.098 | 2.01 ± 0.088 | 2.81 ± 0.087 |
| VRLLCRSDGMGNVLLNA [YLR335W/NUP2] | 1.94 ± 0.17 | 2.41 ± 0.13 | 2.02 ± 0.18 | 2.53 ± 0.12 |
| IQPKITELKKKLDDLEN [SMC1] | 3.11 ± 0.13 | 2.79 ± 0.13 | 3.11 ± 0.14 | 2.71 ± 0.14 |
| DNPLRQIPHFNNKILEK [BRR2] | 3.08 ± 0.092 | 3.1 ± 0.084 | 3.08 ± 0.086 | 3.19 ± 0.08 |
| KLDKQINMADRSLGLQQ [POP6] | 3.02 ± 0.12 | 3.46 ± 0.21 | 3.02 ± 0.16 | 3.62 ± 0.26 |
| EIRRSLSLNLGDYGSAK [POP5] |  | 3.06 ± 0.09 | 3.05 ± 0.18 |  |
| VVLGVEKRATSPLLESD [PUP2] | 2.98 ± 0.16 | 2.84 ± 0.13 | 3.15 ± 0.13 | 2.84 ± 0.11 |
| GLFGNKPNNTANTGGGL [YGL172W/NUP49] | 3.66 ± 0.17 | 3.65 ± 0.13 | 3.49 ± 0.062 | 3.56 ± 0.11 |
| SAPKISSEIDRENVKSK [SIR4] |  |  |  | 3.35 ± 0.15 |
| KDQRATTPYMTKYERAR [RPO26] | 2.56 ± 0.057 | 3.01 ± 0.051 | 2.44 ± 0.11 | 3.04 ± 0.048 |
| SLSKISQAFDIVAALPI [RPP1] | 3.18 ± 0.12 | 3.46 ± 0.15 | 2.97 ± 0.13 |  |
| GPEITPEEATTIFSVMV [PRP8] | 2.09 ± 0.13 | 2.37 ± 0.14 | 1.77 ± 0.22 | 2.6 ± 0.13 |
| IDNGAESSENEAEDDDN [RPC53] | 3.33 ± 0.14 | 3.62 ± 0.17 | 3.15 ± 0.11 | 2.81 ± 0.16 |
| NIVDSSAAGNKAIPTFS [YIL149C/MLP2] | 2.31 ± 0.066 | 2.44 ± 0.077 | 3 ± 0.057 | 2.44 ± 0.059 |
| LWKLLSTVKVSDLNLTD [YLR018C/POM34] | 2.35 ± 0.065 | 2.26 ± 0.044 | 2.3 ± 0.06 | 2.52 ± 0.039 |
| KPGSKPEKTSTELVDGR [SIR3] | 3.16 ± 0.13 | 2.86 ± 0.16 | 3.26 ± 0.089 | 3.27 ± 0.14 |
| NTATNALRPSDIFGANA [YOR098C/NUP1] | 3.08 ± 0.069 | 3.24 ± 0.074 | 3.27 ± 0.061 | 3.2 ± 0.074 |
| ATAAESDVAKQLAALGY [RPL16A] | 2.98 ± 0.042 | 2.91 ± 0.056 | 3.18 ± 0.045 | 3.2 ± 0.048 |
| SYAGKQVVGPFHTSFSA [SMC4] | 2.7 ± 0.078 | 3.33 ± 0.11 | 3.08 ± 0.056 | 3.13 ± 0.049 |
| VMLKGIVTALLESDVNI [SRP54] | 1.3 ± 0.054 | 1.22 ± 0.067 | 1.18 ± 0.14 | 1.16 ± 0.066 |
| TVIEGVKEESQPDENTK [SWI3] | 3.13 ± 0.17 | 3.28 ± 0.15 | 2.74 ± 0.12 | 3 ± 0.089 |
| RHLPMYTEFIDSFIEKI [ITC1] | 2.4 ± 0.097 | 2.69 ± 0.075 | 2.85 ± 0.11 | 3 ± 0.066 |
| LLKDDTYQLCVRLRSNV [RPN3] | 1.47 ± 0.076 | 1.85 ± 0.29 |  | 1.25 ± 0.2 |
